The assay has as its target hK3 (PSA) (human) (UniProt P07288). Briefly: cell-based or functional assay.

Experimental findings from patent publication US20060269536A1 are described below.

Sequence of hK3 (PSA) (human) (P07288 25-261 limits assumed): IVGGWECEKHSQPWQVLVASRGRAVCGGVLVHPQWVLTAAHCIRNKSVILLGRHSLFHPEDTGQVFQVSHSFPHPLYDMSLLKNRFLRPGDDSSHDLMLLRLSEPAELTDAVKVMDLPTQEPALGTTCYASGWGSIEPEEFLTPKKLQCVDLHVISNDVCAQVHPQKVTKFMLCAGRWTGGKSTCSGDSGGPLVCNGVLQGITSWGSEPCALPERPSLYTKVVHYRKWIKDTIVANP

B1: rACT8.20 (designed binder)
chain: MRGSHHHHHHSRHPNSPLDEENLTQENQDRGTHVDLGLASANVDFAFSLYKQLVLKAPDKNVIFSPLSISTALAFLSLGAHNTTLTEILKGLKFNLTETSEAEIHQSFQHLLRTLNQSSDELQLSMGNAMFVKEQLSLLDRFTEDAKRLYGSEAFATDFQDSAAAKKLINDYVKNGTRGKITDLIKDLDSQTMMVLVNYIFFKAKWEMPFDPQDTHQSRFYLSKKKWVMVPMMSLHHLTIPYFRDEELSCTVVELKYTGNASALFILPDQDKMEEVEAMLLPETLKRWRDSLEFREIGELYLPKFSISRDYNLNDILLQLGIEEAFTSKADLSGITGARNLAVSQVVHKAVLDVFEEGTEASAATAVKITLRSRAVETRTIVRFNRPFLMIIVPTDTQNIFFMSKVTNPKQA
B1 had an Inhibition % (residual enzyme activity, CFP-TFRSA-YFP substrate, 90 min at 37°) of 45%.
